Results taken from publication PMC10097602, “Ubiquitin-like conjugation by bacterial cGAS enhances anti-phage defence” (Nature, 2023).

Assays:
[1] = molecular target: cGAMP; assay: ITC; conditions: for Kd: parent: 31.4 nM; for other: ΔH: parent: -24.9 kcal/mol; for other: ΔS: parent: -50.6
[2] = molecular target: T1, Vs.4 (Tequatrovirus T4, UniProt P13314); assay: isothermal titration calorimetry (VP-ITC), global fit of three titrations; type: binding
T1 construct: gene acb2; residues 1-88, full length; SUMO fusion with His6, tag cleaved by ULP1; E. coli BL21(DE3)pLysS
T1 sequence (P13314 1-88): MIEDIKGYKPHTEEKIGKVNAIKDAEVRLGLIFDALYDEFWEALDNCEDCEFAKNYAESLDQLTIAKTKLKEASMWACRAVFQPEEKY

[3] = molecular target: the molecule itself; assay: crystal structure; Vs.4 with 3'3'-cGAMP (1.2:1 molar ratio), hanging drops, 7% PEG8000, 0.1 M imidazole pH 6.3, 0.2 mM calcium acetate, room temperature; quaternary structure confirmed with PISA
[4] = molecular target: the molecule itself; assay: AUC; sedimentation velocity, 15 µM of each protein in 20 mM Tris and 150 mM NaCl; hexamer
[5] = high incompetent fraction (0.496)

Vs.4 from phage T4 (residues 1-88) (from UniProt P13314) F33A
Kd [1, 5]: 25.3 nM
other: ΔH [1, 5]: -24.3 kcal/mol
other: ΔS [1, 5]: -48.8 cal/mol·K

Nc1nc2c(ncn2[C@@H]2O[C@@H]3COP(=O)(O)O[C@H]4[C@@H](O)[C@H](n5cnc6c(N)ncnc65)O[C@@H]4COP(=O)(O)O[C@H]3[C@H]2O)c(=O)[nH]1 [3′3′-cGAMP]
Kd [2]: 31.4 nM

Vs.4 from phage T4 (residues 1-88) (from UniProt P13314) A77Y
Kd [1]: 1100 nM
other: ΔH [1]: -5 kcal/mol
other: ΔS [1]: 10.3 cal/mol·K

Vs.4 from phage T4 (residues 1-88) (from UniProt P13314) Y8A
Kd [1]: 158 nM
other: ΔH [1]: -10.6 kcal/mol
other: ΔS [1]: -5 cal/mol·K

Vs.4 from phage T4 (residues 1-88) (from UniProt P13314) F82A
Kd [1]: 859 nM
other: ΔH [1]: -23.3 kcal/mol
other: ΔS [1]: -51.6 cal/mol·K

B1: Vs.4 from phage T4 (residues 1-88) (natural protein, UniProt P13314 1-88, looked up)
chain: MIEDIKGYKPHTEEKIGKVNAIKDAEVRLGLIFDALYDEFWEALDNCEDCEFAKNYAESLDQLTIAKTKLKEASMWACRAVFQPEEKY
notes: Vs.4, protein of unknown function of bacteriophage T4, residues 1-88; T4 proteome UniProt UP000009087; Hexamer by crystal structure and analytical ultracentrifugation; also called Vs.4 (WT); wild-type Vs.4; source: E. coli BL21(DE3)pLysS, purified (Ni-NTA, SUMO tag cleaved with ULP1, size-exclusion chromatography)
stoichiometry N [3]: 6

B2: Vs.4 F33A (natural protein, phage T4, UniProt P13314 1-88, looked up)
chain: MIEDIKGYKPHTEEKIGKVNAIKDAEVRLGLIADALYDEFWEALDNCEDCEFAKNYAESLDQLTIAKTKLKEASMWACRAVFQPEEKY
notes: Vs.4 of bacteriophage T4, residues 1-88, with F33A; source: E. coli BL21(DE3)pLysS, purified (Ni-NTA, SUMO tag cleaved with ULP1, size-exclusion chromatography)
binding result [4]: binds
